The test system of series [1] is T1, Lys(Dnp)-ATNATX4X3PRIVGG-Lys(Abz), X4 = E, X3 = A.
T1 sequence: KATNATEAPRIVGGK

The test system of series [2] is T2, Lys(Dnp)-ATNATX4X3PRIVGG-Lys(Abz), X4 = S, X3 = G.
T2 sequence: KATNATSGPRIVGGK

The subject of series [3] is T3, Lys(Dnp)-ATNATX4X3PRIVGG-Lys(Abz), X4 = G, X3 = V.
T3 sequence: KATNATGVPRIVGGK

Series [4] concerns T4, Lys(Dnp)-ATNATX4X3PRIVGG-Lys(Abz), X4 = V, X3 = D.
T4 sequence: KATNATVDPRIVGGK

Series [5] relates to T5, Lys(Dnp)-ATNATX4X3PRIVGG-Lys(Abz), X4 = Q, X3 = W.
T5 sequence: KATNATQWPRIVGGK

Series [6] deals with T6, Lys(Dnp)-ATNATX4X3PRIVGG-Lys(Abz), X4 = G, X3 = Q.
T6 sequence: KATNATGQPRIVGGK

Series [7] concerns T7, Lys(Dnp)-ATNATX4X3PRIVGG-Lys(Abz), X4 = S, X3 = S.
T7 sequence: KATNATSSPRIVGGK

As for Human plasma purified Factor Xa, the FXa kcat/KM in series [1] came to 4.3 M⁻¹ s⁻¹; in series [2] it was 24 M⁻¹ s⁻¹; in series [3], 40 M⁻¹ s⁻¹; in series [4], 70 M⁻¹ s⁻¹; in series [5] it was 1400 M⁻¹ s⁻¹; in series [6], 94 M⁻¹ s⁻¹. This substance also had an FXa kcat/KM in series [7] of 40 M⁻¹ s⁻¹.

Values taken from patent publication US20160024487.
